In patent US20040043420A1, “Method of identifying conformation-sensitive binding peptides and uses thereof” (priority 2003, published 2004):
No end group written: not given here.

T1: ER α (UniProt P03372 1-595, limits assumed)
T1 construct: also called estrogen receptor α; ERα-ERE
T1 sequence (looked up): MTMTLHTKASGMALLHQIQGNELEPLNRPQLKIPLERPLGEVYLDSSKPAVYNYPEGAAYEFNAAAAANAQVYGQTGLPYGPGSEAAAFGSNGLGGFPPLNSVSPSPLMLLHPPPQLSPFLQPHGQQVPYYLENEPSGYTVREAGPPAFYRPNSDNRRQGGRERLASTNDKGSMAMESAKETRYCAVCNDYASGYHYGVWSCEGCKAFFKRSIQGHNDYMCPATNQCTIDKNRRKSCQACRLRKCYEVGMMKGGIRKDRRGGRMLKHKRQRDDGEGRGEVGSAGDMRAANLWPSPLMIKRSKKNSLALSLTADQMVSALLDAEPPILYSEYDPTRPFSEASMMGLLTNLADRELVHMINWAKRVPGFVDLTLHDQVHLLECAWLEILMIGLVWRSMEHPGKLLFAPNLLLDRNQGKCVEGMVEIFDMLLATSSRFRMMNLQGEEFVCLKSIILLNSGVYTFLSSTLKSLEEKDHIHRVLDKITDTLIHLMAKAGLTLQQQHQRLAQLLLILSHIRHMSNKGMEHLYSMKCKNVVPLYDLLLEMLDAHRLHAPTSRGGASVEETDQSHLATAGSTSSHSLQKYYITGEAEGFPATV


Experiments:
[1] = target: T1, ER α; assay: phage isolated on ERα-ERE; Estradiol
[2] = target: T1, ER α; assay: phage isolated on ERα on plastic; Tamoxifen

Row | binding result [1] | binding result [2] | Binder
1 | binds |  | SSLRCYLSSSKVDQWACSR (not fully specified; cysteine pairing not given here) [17E]
2 | binds |  | SRLEYYLRLGTYESR [10E]
3 |  | binds | SRDTGDMWWGRGGSR [10PT]
4 |  | binds | SSRMGHVWYDWTFSR [5PT]
5 | binds |  | SSRLLACELMYEDADVCSR [8E]
6 |  | binds | SSYLTLGKSMMAISR [16PT]
7 |  | binds | SRDNCGAGLWAGCSR [19PT]
8 |  | binds | SSGWIEQKLRGSFSR [14PT]
9 | binds |  | SSYKPHSLLEWHLLGGTSR [18E]
10 |  | binds | SSWPYLPKREEWASR [13PT]
11 | binds |  | SRLEELLLMDFWRSR [5E]
12 |  | binds | SSRLLGDFGGSVVSR [6PT]
13 | binds |  | SSKLWQLLSSPIDSR [6E]
14 |  | binds | SSSWSYGKPTFLSSR [9PT]
15 |  | binds | SSKYVFGFQVAGGSR [7PT]
16 | binds |  | SRSLLMDMLMSDDYVTVSR [7E]
